Measurements reported in patent US20030145347.

How the values were obtained:
[1] = target: soybean thioredoxin prep without S-tag (recombinant, expressed in E. coli from pNOV4112, S-Tag removed by thrombin cleavage)
[2] = target: wheat thioredoxin with S-tag (recombinant, expressed in E. coli from pNOV4114)
[3] = target: soybean thioredoxin with S-tag (recombinant, expressed in E. coli from pNOV4112)
[4] = target: rice thioredoxin with S-tag (recombinant, expressed in E. coli from pNOV4113)

B1: E. coli thioredoxin reductase (T-7915, Sigma, St. Louis, Mo.) (protein)
chain: GTTKHSKLLILGSGPAGYTAAVYAARANLQPVLITGMEKGGQLTTTTEVENWPGDPNDLTGPLLMERMHEHATKFETEIIFDHINKVDLQNRPFRLNGDNGEYTCDALIIATGASARYLGLPSEEAFKGRGVSACATCDGFFYRNQKVAVIGGGNTAVEEALYLSNIASEVHLIHRRDGFRAEKILIKRLMDKVENGNIILHTNRTLEEVTGDQMGVTGVRLRDTQNSDNIESLDVAGLFVAIGHSPNTAIFEGQLELENGYIKVQSGIHGNATQTSIPGVFAAGDVMDHIYRQAITSAGTGCMAALDAERYLDGLADAK
[1]
  reduction of thioredoxin, DTNB assay: can reduce soybean thioredoxin with and without the S-tag
[2]
  reduction of thioredoxin, DTNB assay: Wheat thioredoxin can be reduced by E. coli thioredoxin reductase
[3]
  reduction of thioredoxin, DTNB assay: can reduce soybean thioredoxin with and without the S-tag
[4]
  reduction of thioredoxin, DTNB assay: can also reduce rice thioredoxin
